Experimental data reported in paper PMC7954794, “Protein context shapes the specificity of SH3 domain-mediated interactions in vivo” (Nature Communications, 2021).

Test system: Abp1 PPIs
Assay: DHFR-PCA of Abp1 SH3-swapped baits (Fig. 2B-D, S2C, S2F);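 on Protein-protein interaction distance between Abp1 SH3-swapped baits, to ABP1: Euclidean distance between DHFR-PCA score profiles of the baits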;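 on Protein-protein interaction distance between Abp1 SH3-swapped baits, to BEM1-2: Euclidean distance between DHFR-PCA score profiles of the baits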;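 on Protein-protein interaction distance between Abp1 SH3-swapped baits, to BOI1: Euclidean distance between DHFR-PCA score profiles of the baits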;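 on Protein-protein interaction distance between Abp1 SH3-swapped baits, to BZZ1-1: Euclidean distance between DHFR-PCA score profiles of the baits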
Format: cell-based, Saccharomyces cerevisiae
Summary of the method: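 Interactions were scored by DHFR protein-fragment complementation. DHFR F[1,2]-tagged Abp1 strains, whose SH3 was swapped for yeast or human ortholog domains, were crossed on YPD at 30 °C for 48 h with a 1536-format array of 575 prey-DHFR F[3] strains and 40 negatives, giving four replicates per pair. PCA selection lasted 4 days after double diploid selection.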

[1] = number of PPIs, difference, Abp1 SH3-swapped with the listed SH3, Fig2D,S2F

B1: MYO5 (protein, UniProt Q04439 1-1219, looked up)
Myosin-5: MAILKRGARKKVHQEPAKRSANIKKATFDSSKKKEVGVSDLTLLSKISDEAINENLKKRFLNATIYTYIGHVLISVNPFRDLGIYTDAVMNEYKGKNRLEVPPHVFAIAESMYYNMKSYNENQCVIISGESGAGKTEAAKRIMQYIAAASSTHTESIGKIKDMVLATNPLLESFGCAKTLRNNNSSRHGKYLEIKFNNQFEPCAGNITNYLLEKQRVVSQIKNERNFHIFYQFTKGASDAYRQTFGVQKPEQYVYTAAAGCISAETIDDLQDYQETLKAMRVIGLGQEEQDQIFRMLAAILWIGNVSFIENEEGNAQVRDTSVTDFVAYLLQIDSQLLIKSLVERIMETNHGMKRGSVYHVPLNIVQADAVRDALAKAIYNNLFDWIVSRVNKSLQAFPGAEKSIGILDIYGFEIFEHNSFEQICINYVNEKLQQIFIQLTLKSEQETYEREKIQWTPIKYFDNKVVCDLIEARRPPGIFAAMNDSVATAHADSNAADQAFAQRLNLFTTNPHFDLRSNKFVIKHYAGDVTYDIDGITDKNKDQLQKDLVELIGTTTNTFLATIFPDTVDRESKRRPPTAGDKIIKSANDLVETLSKAQPSYIRTIKPNETKSPNDYDDRQVLHQIKYLGLQENVRIRRAGFAYRQVFEKFVERFYLLSPHCSYAGDYTWQGDTLDAVKYILQDSSIPQQEYQLGVTSVFIKTPETLFALEHMRDRYWHNMAARIQRAWRRFLQRRIDAATKIQRTIRERKEGNKYEKLRDYGTKVLGGRKERRSMSLLGYRAFMGDYLSCNESKSKGAYIKRQVSIKEKVIFSIHGEALHTKFGRSAQRLKKTFLLTPTTLYIVGQTLVQNAMTYTQDYKIDVRNIQAVSLTNLQDDWVAIKLASSGQPDPLINTYFKTELITHLKRLNDKIQIKIGSAIEYQKKPGKLHSVKCQINESAPKYGDIYKSSTISVRRGNPPNSQVHKKPRKKSSISSGYHASSSQATRRPVSIAAAQHVPTAPASRHSKKPAPPPPGMQNKAATRRSVPNPASTLTASQSNARPSPPTAATRATPAATPAAAAMGSGRQANIPPPPPPPPPSSKPKEPMFEAAYDFPGSGSPSELPLKKGDVIYITREEPSGWSLGKLLDGSKEGWVPTAYMKPHSGNNNIPTPPQNRDVPKPVLNSVQHDNTSANVIPAAAQASLGDGLANALAARANKMRLESDDEEANEDEEEDDW
- Protein-protein interaction distance between Abp1 SH3-swapped baits, to ABP1 (Abp1 bait with swapped SH3, distance to bait with ABP1 SH3, sheet Fig2C): 12.37
- Protein-protein interaction distance between Abp1 SH3-swapped baits, to BBC1 (distance to Abp1 bait with BBC1 SH3, sheet Fig2C): 12.56
- Protein-protein interaction distance between Abp1 SH3-swapped baits, to BEM1-1 (distance to Abp1 bait with BEM1-1 SH3, sheet Fig2C): 17.04
- Protein-protein interaction distance between Abp1 SH3-swapped baits, to BEM1-2 (distance to Abp1 bait with BEM1-2 SH3, sheet Fig2C): 34.62
- Protein-protein interaction distance between Abp1 SH3-swapped baits, to BOI1 (distance to Abp1 bait with BOI1 SH3, sheet Fig2C): 14.33
- Protein-protein interaction distance between Abp1 SH3-swapped baits, to BOI2 (distance to Abp1 bait with BOI2 SH3, sheet Fig2C): 17.59
- Protein-protein interaction distance between Abp1 SH3-swapped baits, to BUD14 (distance to Abp1 bait with BUD14 SH3, sheet Fig2C): 20.27
- Protein-protein interaction distance between Abp1 SH3-swapped baits, to BZZ1-1 (distance to Abp1 bait with BZZ1-1 SH3, sheet Fig2C): 9.674
- Protein-protein interaction distance between Abp1 SH3-swapped baits, to BZZ1-2 (distance to Abp1 bait with BZZ1-2 SH3, sheet Fig2C): 13.83
- Protein-protein interaction distance between Abp1 SH3-swapped baits, to CDC25 (distance to Abp1 bait with CDC25 SH3, sheet Fig2C): 28.8
- Protein-protein interaction distance between Abp1 SH3-swapped baits, to CTTN (distance to Abp1 bait with CTTN SH3, sheet Fig2C): 14.85
- Protein-protein interaction distance between Abp1 SH3-swapped baits, to CYK3 (distance to Abp1 bait with CYK3 SH3, sheet Fig2C): 29.49
- Protein-protein interaction distance between Abp1 SH3-swapped baits, to DBNL (distance to Abp1 bait with DBNL SH3, sheet Fig2C): 9.722
- Protein-protein interaction distance between Abp1 SH3-swapped baits, to FUS1 (distance to Abp1 bait with FUS1 SH3, sheet Fig2C): 21.47
- Protein-protein interaction distance between Abp1 SH3-swapped baits, to HCLS1 (distance to Abp1 bait with HCLS1 SH3, sheet Fig2C): 10.37
- Protein-protein interaction distance between Abp1 SH3-swapped baits, to HOF1 (distance to Abp1 bait with HOF1 SH3, sheet Fig2C): 33.29
- Protein-protein interaction distance between Abp1 SH3-swapped baits, to HSE1 (distance to Abp1 bait with HSE1 SH3, sheet Fig2C): 10.84
- Protein-protein interaction distance between Abp1 SH3-swapped baits, to LSB1 (distance to Abp1 bait with LSB1 SH3, sheet Fig2C): 7.822
- Protein-protein interaction distance between Abp1 SH3-swapped baits, to LSB3 (distance to Abp1 bait with LSB3 SH3, sheet Fig2C): 8.063
- Protein-protein interaction distance between Abp1 SH3-swapped baits, to MYO3 (distance to Abp1 bait with MYO3 SH3, sheet Fig2C): 5.861
- Protein-protein interaction distance between Abp1 SH3-swapped baits, to MYO5 (distance to Abp1 bait with MYO5 SH3, sheet Fig2C): 0.00
- Protein-protein interaction distance between Abp1 SH3-swapped baits, to NBP2 (distance to Abp1 bait with NBP2 SH3, sheet Fig2C): 19.41
- Protein-protein interaction distance between Abp1 SH3-swapped baits, to PEX13 (distance to Abp1 bait with PEX13 SH3, sheet Fig2C): 7.969
- Protein-protein interaction distance between Abp1 SH3-swapped baits, to PIN3 (distance to Abp1 bait with PIN3 SH3, sheet Fig2C): 6.67
- Protein-protein interaction distance between Abp1 SH3-swapped baits, to RVS167 (distance to Abp1 bait with RVS167 SH3, sheet Fig2C): 7.689
- Protein-protein interaction distance between Abp1 SH3-swapped baits, to SDC25 (distance to Abp1 bait with SDC25 SH3, sheet Fig2C): 35.29
- Protein-protein interaction distance between Abp1 SH3-swapped baits, to SHO1 (distance to Abp1 bait with SHO1 SH3, sheet Fig2C): 10.26
- Protein-protein interaction distance between Abp1 SH3-swapped baits, to SLA1-1 (distance to Abp1 bait with SLA1-1 SH3, sheet Fig2C): 31.36
- Protein-protein interaction distance between Abp1 SH3-swapped baits, to SLA1-2 (distance to Abp1 bait with SLA1-2 SH3, sheet Fig2C): 22.13
- Protein-protein interaction distance between Abp1 SH3-swapped baits, to SLA1-3 (distance to Abp1 bait with SLA1-3 SH3, sheet Fig2C): 7.257
- Protein-protein interaction distance between Abp1 SH3-swapped baits, to YSC84 (distance to Abp1 bait with YSC84 SH3, sheet Fig2C): 8.128
- PPIs gained by Abp1 - SH3-dependent PPIs gained by Abp1 [1]: 27
- SH3-dependent PPIs - SH3-dependent PPIs gained by Abp1 [1]: 16
- SH3-dependent PPIs gained by Abp1 (number of PPIs, Abp1 SH3-swapped with the listed SH3, DHFR-PCA, Fig2D,S2F): 3
